What was measured:
[1] = biological target: T1, Ins 5 type mutant CALR protein on UT-7/TPO CALR Ins 5 cells (UniProt P27797 18-417); assay: cell-based or functional assay
T1 sequence (looked up): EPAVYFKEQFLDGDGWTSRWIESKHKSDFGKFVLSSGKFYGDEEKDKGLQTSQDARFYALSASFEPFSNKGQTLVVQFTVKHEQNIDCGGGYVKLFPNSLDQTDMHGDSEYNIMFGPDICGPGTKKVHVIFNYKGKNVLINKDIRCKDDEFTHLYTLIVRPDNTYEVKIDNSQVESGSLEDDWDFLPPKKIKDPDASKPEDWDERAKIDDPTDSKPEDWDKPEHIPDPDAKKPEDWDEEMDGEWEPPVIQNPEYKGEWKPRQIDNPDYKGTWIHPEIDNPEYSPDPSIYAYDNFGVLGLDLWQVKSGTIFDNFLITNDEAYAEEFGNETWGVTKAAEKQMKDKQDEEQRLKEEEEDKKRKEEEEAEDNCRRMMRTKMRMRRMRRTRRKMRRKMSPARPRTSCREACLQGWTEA

[2] = biological target: T2, protein having an Fc region and a His-tag added to the N-terminus of SEQ ID NO: 1; assay: BLItz biolayer interferometry, Fc/His-SEQ ID NO: 1 protein on the biosensor
T2 construct: also called mutant CALR protein (antigen of the BLItz measurement); not shown: Fc region and His-tag at the N-terminus
T2 chain: RRMMRTKMRMRRM
Summary of the method: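 The Fc/His-tagged protein was loaded at 0.1 mg/mL onto Anti-Penta-HIS or Protein A biosensors. Antibodies were run at 500, 100 and 50 nM by biolayer interferometry, and the dissociation constant was derived from these binding curves.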

Kd [2]: 6.06 nM
B1: Antibody 114 (bispecific antibody)
chain 1: DIQMTQSPSSLSASVGDRVTITCLASEDIYSYLAWYQQKPGKAPKLLIFAANRLQSGVPSRFSGSGSGTDFTLTISSLQPEDFATYYCLQGSKFPYTFGPGTKVDIKGGGGSGGGGSGGGGSQVQLVQSGAEVKKPGSSVKVSCKASGYTFTRNFIHWIRQAPGQGLEWIGWIFPGDADTEYNQKFSGRATITADKSTSTAYMELSSLRSEDTAVYYCARGNYNYEYFDYWGQGTMVTVSSGGGGSGGGGSGGGGSDKTHTCPPCPAPEAAGGPSVFLFPPKPKDTLMISRTPEVTCVVVDVSHEDPEVKFNWYVDGVEVHNAKTKPREEQYNSTYRVVSVLTVLHQDWLNGKEYKCKVSNKALPAPIEKTISKAKGQPREPQVCTLPPSREEMTKNQVSLSCAVKGFYPSDIAVEWESNGQPENNYKTTPPVLDSDGSFFLVSKLTVDKSRWQQGNVFSCSVMHEALHNHYTQKSLSLSPGK
chain 2: not shown
EC50 of cytotoxic activity (pM) [1]: 790 pM

Source: patent US20240092890A1 (JUNTENDO EDUCATIONAL FOUNDATION, published 2024)
